These results are taken from US7947279B2, “Peptide having hydrolase activity” (The Trustees of Columbia University in the City of New York, priority 2005, dated 2011).

In data set [1] the target is T1, Uch-L3 (Homo sapiens, UniProt P15374).
T1 sequence (P15374 1-230): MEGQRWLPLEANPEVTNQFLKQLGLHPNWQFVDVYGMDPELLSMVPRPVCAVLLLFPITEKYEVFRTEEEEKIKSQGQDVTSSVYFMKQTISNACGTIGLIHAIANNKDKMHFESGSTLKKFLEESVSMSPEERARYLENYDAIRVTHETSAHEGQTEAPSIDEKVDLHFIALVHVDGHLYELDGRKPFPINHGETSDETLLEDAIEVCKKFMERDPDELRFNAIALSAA
The data set can be described thus: Nedd8-AMC hydrolysis by Uch-L3. The conditions noted are these: 5 μM LDN, 20 nM Uch-L3, Nedd8-AMC 400 nM. It counts as biochemical. As to the method: Measurement of Hydrolase Activity: The hydrolase assay was performed as previously described (Nishikawa et al., 2003) with slight modifications. Briefly, hippocampal tissue was treated with tissue protein extraction reagent (T-PER; Pierce) containing freshly added EDTA-free protease inhibitors. Homogenate was centrifuged at 10,000 rpm for 5 min. Protein concentration was measured in the supernatant using the BCA protein assay reagent. In some experiments hydrolysis was initiated by adding 10 μl of 20 nM Uch-L1 or Uch-L3 (Boston Biochem). The hydrolase assay was performed using fluorogenic ubiquitin-7-amino-4-methylcoumarin (ubiquitin-AMC) (Boston Biochem) as a substrate. The substrate was diluted in assay buffer (50 mM Tris-HCL, 0.5 mM EDTA, 5 mM dithiothreitol and 0.1 mg/ml ovalbumin, pH 7.6). […] The reaction was monitored using a fluorescence spectrophotometer (CytoFluor Series 4000, ABI Inc) at 25° C. The free AMC fluorophore was excited at 380 nm and measured at 460 nm. Hydrolase activity was expressed as relative fluorescence intensity/min (Dang et al., 1998). In some experiments, hydrolysis was also measured on the soluble and insoluble fractions (FIG. 28D). In a group of experiments hydrolysis was measured by mixing ubiquitin-AMC with 20 nM TAT fusion proteins (FIG. 27C). […]

Data set [2] concerns the target T1, Uch-L3. The conditions noted are these: cited from earlier work.
A further data set relates to hippocampal slices. It is filed as cell-based, mouse. How it is done:
Western Blotting: Protein levels were assessed using standard procedures. Protein extraction was performed using buffer with and without detergent. For the extraction of protein using detergent, hippocampal tissues and cultured hippocampal neurons (5 DIV) were homogenized in RIPA buffer (50 mM Tris-HCl pH 7.4, 1% Triton X-100, 1% sodium deoxycholate, 0.1% SDS, 150 mM sodium chloride, 10 mM sodium fluoride, 30 mM sodium pyrophosphate, 50 mM sodium orthovanadate) containing 1× complete protease inhibitor (Roche) and 1 mM phenylmethylsulfonyl fluoride (PMSF). For extraction of proteins without detergent, hippocampal extracts were homogenized with disposable dounce homogenizers in buffer A, containing 10 mM HEPES pH 7.3, 300 mM sucrose, protease 1× complete protease inhibitor (Roche) and PMSF. After centrifugation at 10,000×g supernatant proteins were resolved on a 8% or 4-20% gradient Tris-Glycine gel, transferred onto PVDF or nitrocellulose membrane and blocked in 5% skim milk in PBS-Tween 0.1% (PBS-T). […] To control loading and transfer, protein immunoreactivities were normalized against total extracellular signal-regulated protein kinases (ERK1/2) levels with a rabbit analyzed using a rabbit polyclonal anti-ERK1/2 antibody (Cell Signaling Technology, Inc). NIH IMAGE was used to analyze the scanned blots and quantify the intensity of the protein signals.

Data set [3] deals with PKA. The data set can be described thus: PKA kinase activity in hippocampal slices. It counts as cell-based, mouse.
The subject of the next data set is cAMP. The data set can be described thus: Intracellular cAMP enzyme immunoassay. It counts as cell-based, rat. The conditions noted are these: fusion protein 100 nM 24 hrs, Aβ. As to the method: Intracellular cAMP Enzyme Immunoassay. Hippocampal neurons from E18 rats were dissociated and plated on poly-L-lysine coated 6-well plates in minimum essential medium supplemented with N-2, glucose, albumin, pyruvic acid, antibiotics and antimycotics. […] After 24 hours, cell lysates were obtained and intracellular cAMP levels were measured using cAMP Biotrak Enzymeimmunoassay (EIA) System (Amersham) in accordance with manufacturer's instructions.

The test system of another data set is Aβ42. As to the kind of experiment: Quantification of amyloid peptides by ELISA in APP/PS1 mice. It is filed as in vivo, mouse. The conditions noted are these: for cortex Aβ levels / hippocampal Aβ levels: 0.02-0.04 g/kg i.p.; for Aβ levels in APP/PS1 mice (words): single injection 0.02-0.04 g/kg i.p.
For another data set, the system named is PKA RIIα. As to the kind of experiment: PKA RIIα levels in hippocampal slices (Western blot). It is filed as cell-based, mouse. The conditions noted are these: for Aβ-induced increase in PKA RIIα levels (words): fusion protein 20 nM 1 hr, Aβ 200 nM 20 min. As to the method: Western Blotting: Protein levels were assessed using standard procedures. Protein extraction was performed using buffer with and without detergent. For the extraction of protein using detergent, hippocampal tissues and cultured hippocampal neurons (5 DIV) were homogenized in RIPA buffer (50 mM Tris-HCl pH 7.4, 1% Triton X-100, 1% sodium deoxycholate, 0.1% SDS, 150 mM sodium chloride, 10 mM sodium fluoride, 30 mM sodium pyrophosphate, 50 mM sodium orthovanadate) containing 1× complete protease inhibitor (Roche) and 1 mM phenylmethylsulfonyl fluoride (PMSF). For extraction of proteins without detergent, hippocampal extracts were homogenized with disposable dounce homogenizers in buffer A, containing 10 mM HEPES pH 7.3, 300 mM sucrose, protease 1× complete protease inhibitor (Roche) and PMSF. After centrifugation at 10,000×g supernatant proteins were resolved on a 8% or 4-20% gradient Tris-Glycine gel, transferred onto PVDF or nitrocellulose membrane and blocked in 5% skim milk in PBS-Tween 0.1% (PBS-T). Membranes were probed with primary antibodies, and after washing with PBS-T incubated with an appropriate HRP-conjugated secondary antibody. The following antibodies were used: mouse monoclonal anti-ubiquitin (Chemicon), rabbit polyclonal anti-pCREB (Upstate Biotech.), rabbit polyclonal anti-PKA-RIIα (Santa Cruz Biotech. Inc), mouse monoclonal anti-Uch-L1 (Novocastra), monoclonal mouse anti-HA (Santa Cruz Biotech. Inc), and anti-PKA IIα. Detection was performed using HRP-conjugated secondary antibodies (Pierce, Rockford, Ill.). To control loading and transfer, protein immunoreactivities were normalized against total extracellular signal-regulated protein kinases (ERK1/2) levels with a rabbit analyzed using a rabbit polyclonal anti-ERK1/2 antibody (Cell Signaling Technology, Inc). NIH IMAGE was used to analyze the scanned blots and quantify the intensity of the protein signals.

Data set [4] deals with PKA. The data set can be described thus: PKA kinase activity in hippocampal cultures. It counts as cell-based, rat. The conditions noted are these: fusion protein 100 nM 24 hrs; for basal PKA activity in Aβ-treated cultures: Aβ 24 hrs. As to the method:
PKA Kinase Activity Measurement. Primary hippocampal neurons from E18 rats were dissociated and cultured as described (Vitolo et al, Proc Natl Acad Sci USA 99:13217-13221 (2002)). […]
Hippocampal slices were lysed with RIPA lysis buffer and homogenized by Dounce homogenizer on ice. 5 DIV primary cultures were treated for 24 hrs and cells were lysed with RIPA lysis buffer.
Levels of intracellular PKA kinase activity were measured by PKA Kinase Activity Assay Kit (Stressxpress) according to manufacturer's instructions.
Preparation of Cell Cultures. Hippocampal cell cultures were prepared as previously described (Vitolo et al., 2002). In cell culture experiments fetuses at embryonic day 18 from timed pregnant Sprague-Dawley rats (Taconic Farms) were used. Fetuses were sacrificed and the hippocampi removed. Neurons were then dissociated, plated on 6 well-plates coated with poly-L-lysine and maintained in a defined serum-free medium containing minimum essential medium supplemented with N-2, glucose, albumin, pyruvic acid, antibiotics and antimycotics. […] 5 DIV cells were used for the experiments.

The mark [5] stands for this setting: listed as TAT-Uch-L1 fusion protein.
The mark [6] stands for this setting: listed as Uch-L1 fusion protein.
The mark [7] stands for this setting: 3-5 month old APP/PS1 mice, sacrificed 3 weeks after injection.
Setting [8] is: 4 month old APP/PS1 mice, sacrificed 4 hrs after injection.
The mark [9] stands for this setting: 4 hrs after injection, 4 month old APP/PS1 mice.

Entries after “also recorded” stand apart in the source; their conditions may differ.

As to `CC(=O)O/N=C1\C(=O)N(Cc2cc(Cl)ccc2Cl)c2ccc(Cl)cc21` [LDN-57444, reference compound], the “Uch-L3 hydrolase activity (Nedd8-AMC hydrolysis)” value on Uch-L3 [1] is “does not affect Uch-L3 hydrolase activity”; at Uch-L3 [1] (listed as LDN) it was “no reduction in hydrolysis of Nedd8-AMC”. Further, at Uch-L3 [2], the IC50 is 25 µM.

B1: TAT-HA-Uch-L1: fusion protein: 11-amino acid transduction domain of HIV-transactivator protein (TAT) fused with an HA tag and human Uch-L1 (protein)
chain: MQLKPMEINPEMLNKVLSRLGVAGQWRFVDVLGLEEESLGSVPAPACALLLLFPLTAQHENFRKKQIEELKGQEVSPKVYFMKQTIGNSCGTIGLIHAVANNQDKLGFEDGSVLKQFLSETEKMSPEDRAKCFEKNEAIQAAHDAVAQEGQCRVDDKVNFHFILFNNVDGHLYELDGRMPFPVNHGASSEDTLLKDAAKVCREFTEREQGEVRFSAVALCKAA
modifications: left off: small tags and cut ends
Turning to B1, in the data set with hippocampal slices, the “localisation in soluble/insoluble protein fractions” value is “localized to the soluble fraction”. Besides, in the data set with PKA [3] (20 nM TAT-HA-Uch-L1 1 hr, then 200 nM Aβ plus TAT-HA-Uch-L1 20 min), the PKA activity came to 89.21±3.21%. In the data set on PKA [3] (fusion protein 20 nM 1 hr pre-incubation, 200 nM Aβ 20 min), the “PKA activity in Aβ-treated slices” value was “blocked the reduction; also recorded: increased levels of kinase activity”. The “cAMP levels in Aβ-treated cultured hippocampal neurons (words)” value is “remained low; also recorded: did not affect the decrease in cAMP levels; also recorded: does not rescue the decrease in cAMP levels” in the data set with cAMP, “does not re-establish normal cAMP levels” in the data set on cAMP (setting [5]) and “does not rescue the decrease in cAMP levels” with cAMP (setting [6]). The “cortex Aβ levels” value was 90.28±17.38 pmol/mg protein in the data set with Aβ42 (setting [7]) and 4.17±0.68 pmol/mg protein in the data set with Aβ42 (setting [8]). Also, the “hippocampal Aβ levels” value with Aβ42 (setting [7]) was determined as 178.60±18.24 pmol/mg protein; in the data set with Aβ42 (setting [8]), 6.35±0.54 pmol/mg protein. Further, the “cortical Aβ42” value is “about 104%” with Aβ42 (setting [9]) and “about 103%” in the data set on Aβ42 (mice tested for fear conditioning over 21 days). The “hippocampal Aβ42” value with Aβ42 (setting [9]) is listed as “about 94 % that of vehicle-treated APP/PS1 mice”. The “Aβ levels in APP/PS1 mice (words)” value is on record as “no difference in Aβ42 levels; also recorded: did not change Aβ levels” in the data set on Aβ42 and “did not change Aβ levels” in the data set with Aβ42 (setting [6]). The “IIα regulatory subunit levels” value with PKA RIIα (20 nM TAT-HA-Uch-L1 1 hr pretreatment plus Aβ42) is reported as 121.03±14.10 % of control. For the same molecule, the “Aβ-induced increase in PKA RIIα levels (words)” value with PKA RIIα is “blocked by pretreatment; also recorded: re-established normal levels of regulatory subunit; also recorded: re-established normal levels of RIIα”; in the data set with PKA RIIα (setting [5]) it was “blocks the increase”; in the data set with PKA RIIα (setting [6]), “blocked”. Also, the “glutamate-induced increase in PKA activity in Aβ-treated cultures” value in the data set with PKA [4] (3 μM Aβ 24 hrs, glutamate 50 μM 15 min) is “rescued the increase in PKA activity; also recorded: rescued the glutamate-induced increase in kinase activity”. Besides, the results for the “basal PKA activity in Aβ-treated cultures” value with PKA [4] and with PKA [4] (setting [5]) were “reversing the Aβ-induced decrease in basal PKA activity; also recorded: re-established; also recorded: increased levels of kinase activity” and “re-establishes normal levels”, respectively.
